Here are results for one substance from paper PMC11059233.

This assay concerns the target HLA-B*35:01 expressed in C1R cells (C1R.B*35:01) (human | human (endogenous in C1R)).

influenza B virus PB2_(66-70) peptide: the IFN-γ+TNF+ CD8+ T cells (expanded with pool J) after restimulation with peptide-pulsed C1R.B*35:01; donors responding is 1 of 6 donors.
